From patent US20250333445A1, “NOVEL POLYPEPTIDES” (Oncopeptides Innovation 1 AB, priority 2022, published 2025)

Molecular target: Human BCMA-rFc (BCMA Protein aa 1-54, Human, Recombinant (ECD, rabbit Fc Tag), cat. no. 10620-H15H, Sino Biological) (human) (UniProt Q02223)
Assay: SPR, 200 nM hCD16a over immobilised hBCMA-rFc without engager (background control)

response signal [RU] | Substance
< 10 | hCD16a F158 (Cat. no. CDA-H5220, Acro Biosystems) (from UniProt P08637 17-208) (receptor)
< 10 | hCD16a V158 (Cat. no. CD8-H52H4, Acro Biosystems) (from UniProt P08637 17-208) (receptor)
